According to IntAct's records for PubMed 12670962:

B1: Cell division inhibitor SulA (Escherichia coli (strain K12)), P0AFZ5 (parent)
chain: MYTSGYAHRSSSFSSAASKIARVSTENTTAGLISEVVYREDQPMMTQLLLLPLLQQLGQQSRWQLWLTPQQKLSREWVQASGLPLTKVMQISQLSPCHTVESMVRALRTGNYSVVIGWLADDLTEEEHAELVDAANEGNAMGFIMRPVSASSHATRQLSGLKIHSNLYH

Variants of: B1
Settings: with hslu_ecoli hslU

Variant | effect of a mutation on the interaction
L57F | disrupting interaction
M89I | increasing interaction
